From article PMC5153249
“And” between values parts separate entries of the source, which are not always exact repeats. Equal entries are not always repeated. Each block holds one substance with its values, some of them ahead of it.

Experiments:
[1] = tested on: yeast 43S PIC: 40S+eIF1+eIF1A+eIF2 (Met-tRNAi TC); for mRNA recruitment also eIF5, eIF4A, eIF4B, eIF4E-eIF4G (Saccharomyces cerevisiae); test: EMSA; conditions: no eIF3, measurement 1, m7G cap, 30 mM HEPES-KOH pH 7.4, 100 mM KOAc, 3 mM Mg(OAc)2, 2 mM DTT, 1 mM GDPNP, 26 C, 2 h, native 4% THEM gel
[2] = tested on: yeast 43S PIC: 40S+eIF1+eIF1A+eIF2 (Met-tRNAi TC); for mRNA recruitment also eIF5, eIF4A, eIF4B, eIF4E-eIF4G;eIF3 (a Box37) (Saccharomyces cerevisiae;Saccharomyces cerevisiae); test: EMSA; conditions: measurement 1; m7G cap; 30 mM HEPES-KOH pH 7.4, 100 mM KOAc, 3 mM Mg(OAc)2, 2 mM DTT, 1 mM GDPNP, 26 C, 2 h; native 4% THEM gel
[3] = tested on: yeast 43S PIC: 40S+eIF1+eIF1A+eIF2 (Met-tRNAi TC); for mRNA recruitment also eIF5, eIF4A, eIF4B, eIF4E-eIF4G;eIF3 (a Box6) (Saccharomyces cerevisiae;Saccharomyces cerevisiae); test: EMSA; conditions: measurement 1; m7G cap; 30 mM HEPES-KOH pH 7.4, 100 mM KOAc, 3 mM Mg(OAc)2, 2 mM DTT, 1 mM GDPNP, 26 C, 2 h; native 4% THEM gel
[4] = tested on: yeast 43S PIC: 40S+eIF1+eIF1A+eIF2 (Met-tRNAi TC); for mRNA recruitment also eIF5, eIF4A, eIF4B, eIF4E-eIF4G;eIF3 (a H725P) (Saccharomyces cerevisiae;Saccharomyces cerevisiae); test: EMSA; conditions: measurement 1; m7G cap; 30 mM HEPES-KOH pH 7.4, 100 mM KOAc, 3 mM Mg(OAc)2, 2 mM DTT, 1 mM GDPNP, 26 C, 2 h; native 4% THEM gel
[5] = tested on: yeast 43S PIC: 40S+eIF1+eIF1A+eIF2 (Met-tRNAi TC); for mRNA recruitment also eIF5, eIF4A, eIF4B, eIF4E-eIF4G;eIF3 (a R731I) (Saccharomyces cerevisiae;Saccharomyces cerevisiae); test: EMSA; conditions: measurement 1; m7G cap; 30 mM HEPES-KOH pH 7.4, 100 mM KOAc, 3 mM Mg(OAc)2, 2 mM DTT, 1 mM GDPNP, 26 C, 2 h; native 4% THEM gel
[6] = tested on: yeast 43S PIC: 40S+eIF1+eIF1A+eIF2 (Met-tRNAi TC); for mRNA recruitment also eIF5, eIF4A, eIF4B, eIF4E-eIF4G;eIF3 (a delta8) (Saccharomyces cerevisiae;Saccharomyces cerevisiae); test: EMSA; conditions: measurement 1, m7G cap, 30 mM HEPES-KOH pH 7.4, 100 mM KOAc, 3 mM Mg(OAc)2, 2 mM DTT, 1 mM GDPNP, 26 C, 2 h, native 4% THEM gel
[7] = tested on: yeast 43S PIC: 40S+eIF1+eIF1A+eIF2 (Met-tRNAi TC); for mRNA recruitment also eIF5, eIF4A, eIF4B, eIF4E-eIF4G;eIF3 (b prt1-1) (Saccharomyces cerevisiae;Saccharomyces cerevisiae); test: EMSA; conditions: 30 mM HEPES-KOH pH 7.4, 100 mM KOAc, 3 mM Mg(OAc)2, 2 mM DTT, 1 mM GDPNP, 26 C, 2 h, native 4% THEM gel; for binding signal: measurement 1, m7G cap
[8] = tested on: yeast 43S PIC: 40S+eIF1+eIF1A+eIF2 (Met-tRNAi TC); for mRNA recruitment also eIF5, eIF4A, eIF4B, eIF4E-eIF4G;eIF3 (b rnp1) (Saccharomyces cerevisiae;Saccharomyces cerevisiae); test: EMSA; conditions: 30 mM HEPES-KOH pH 7.4, 100 mM KOAc, 3 mM Mg(OAc)2, 2 mM DTT, 1 mM GDPNP, 26 C, 2 h, native 4% THEM gel; for binding signal: measurement 1, m7G cap
[9] = tested on: yeast 43S PIC: 40S+eIF1+eIF1A+eIF2 (Met-tRNAi TC); for mRNA recruitment also eIF5, eIF4A, eIF4B, eIF4E-eIF4G;eIF3 (c Box12-SPW) (Saccharomyces cerevisiae;Saccharomyces cerevisiae); test: EMSA; conditions: measurement 1; m7G cap; 30 mM HEPES-KOH pH 7.4, 100 mM KOAc, 3 mM Mg(OAc)2, 2 mM DTT, 1 mM GDPNP, 26 C, 2 h; native 4% THEM gel
[10] = tested on: yeast 43S PIC: 40S+eIF1+eIF1A+eIF2 (Met-tRNAi TC); for mRNA recruitment also eIF5, eIF4A, eIF4B, eIF4E-eIF4G;eIF3 (c GAP85) (Saccharomyces cerevisiae;Saccharomyces cerevisiae); test: EMSA; conditions: measurement 1; m7G cap; 30 mM HEPES-KOH pH 7.4, 100 mM KOAc, 3 mM Mg(OAc)2, 2 mM DTT, 1 mM GDPNP, 26 C, 2 h; native 4% THEM gel
[11] = tested on: yeast 43S PIC: 40S+eIF1+eIF1A+eIF2 (Met-tRNAi TC); for mRNA recruitment also eIF5, eIF4A, eIF4B, eIF4E-eIF4G;eIF3 (c delta60) (Saccharomyces cerevisiae;Saccharomyces cerevisiae); test: EMSA; conditions: measurement 1; m7G cap; 30 mM HEPES-KOH pH 7.4, 100 mM KOAc, 3 mM Mg(OAc)2, 2 mM DTT, 1 mM GDPNP, 26 C, 2 h; native 4% THEM gel
[12] = tested on: yeast 43S PIC: 40S+eIF1+eIF1A+eIF2 (Met-tRNAi TC); for mRNA recruitment also eIF5, eIF4A, eIF4B, eIF4E-eIF4G;eIF3 (g KLF) (Saccharomyces cerevisiae;Saccharomyces cerevisiae); test: EMSA; conditions: measurement 1; m7G cap; 30 mM HEPES-KOH pH 7.4, 100 mM KOAc, 3 mM Mg(OAc)2, 2 mM DTT, 1 mM GDPNP, 26 C, 2 h; native 4% THEM gel
[13] = tested on: yeast 43S PIC: 40S+eIF1+eIF1A+eIF2 (Met-tRNAi TC); for mRNA recruitment also eIF5, eIF4A, eIF4B, eIF4E-eIF4G;eIF3 (i Q258R) (Saccharomyces cerevisiae;Saccharomyces cerevisiae); test: EMSA; conditions: measurement 1; m7G cap; 30 mM HEPES-KOH pH 7.4, 100 mM KOAc, 3 mM Mg(OAc)2, 2 mM DTT, 1 mM GDPNP, 26 C, 2 h; native 4% THEM gel
[14] = tested on: yeast 43S PIC: 40S+eIF1+eIF1A+eIF2 (Met-tRNAi TC); for mRNA recruitment also eIF5, eIF4A, eIF4B, eIF4E-eIF4G;eIF3 WT (a/b/c/i/g) (Saccharomyces cerevisiae;Saccharomyces cerevisiae); test: EMSA; conditions: measurement 1; m7G cap; 30 mM HEPES-KOH pH 7.4, 100 mM KOAc, 3 mM Mg(OAc)2, 2 mM DTT, 1 mM GDPNP, 26 C, 2 h; native 4% THEM gel
[15] = tested on: yeast 43S PIC: 40S+eIF1+eIF1A+eIF2 (Met-tRNAi TC); for mRNA recruitment also eIF5, eIF4A, eIF4B, eIF4E-eIF4G;eIF3 a/b/c sub-complex (Saccharomyces cerevisiae;Saccharomyces cerevisiae); test: EMSA; conditions: 30 mM HEPES-KOH pH 7.4, 100 mM KOAc, 3 mM Mg(OAc)2, 2 mM DTT, 1 mM GDPNP, 26 C, 2 h, native 4% THEM gel; for binding signal: measurement 1, m7G cap
[16] = target: 43S pre-initiation complex (40S, eIF1, eIF1A, ternary complex; no mRNA) (S. cerevisiae) (UniProt P32911); test: native gel or EMSA; gel shift monitoring [35S]-Met-tRNAi; 43S PICs without mRNA (1 µM eIF1, 1 µM eIF1A, 200 nM eIF2, 1 mM GDPNP•Mg2+, 2 nM Met-tRNAi, 30 nM 40S); eIF3 titrated 30-500 nM; 1X Recon buffer (30 mM HEPES-KOH pH 7.4, 100 mM KOAc, 3 mM Mg(OAc)2, 2 mM DTT), 26 °C, 2 h; apparent KD, Hill equation; single experiments; apparent affinities ≤ 30 nM likely upper limits
[17] = no mRNA, ~3 fold weaker than WT, mean of 2, column assigned from text, Met-charged

Substance: mid-AUG model mRNA
binding signal [1]: 88.2 % recruited
binding signal [2]: 96.8 % recruited
binding signal [3]: 97.1 % recruited
binding signal [4]: 93.3 % recruited
binding signal [5]: 93.8 % recruited
binding signal [6]: 95.9 % recruited
binding signal [7]: 94.6 % recruited
binding signal [8]: 77.8 % recruited
binding signal [9]: 96.1 % recruited
binding signal [10]: 97.7 % recruited
binding signal [11]: 96.9 % recruited
binding signal [12]: 98.3 % recruited
binding signal [13]: 97.7 % recruited
binding signal [14]: 98.5 % recruited
binding signal [15]: 81.6 % recruited

Kd [16]: 0.126 µM
Substance: eIF3 variant R731I (eIF3a/Tif32 CTD) (from UniProt P38249 1-964; P06103 1-763; P32497 1-812; P40217 1-347; Q04067 1-274) (complex)

Substance: initiator tRNAiMet
Kd [7, 17]: 0.0423 µM
Kd ([8]; no mRNA, ~2 fold weaker than WT, mean of 2, column assigned from text, Met-charged): 0.0281 µM
Kd [15, 17]: 0.0478 µM

Substance: 3'5-AUG model mRNA
binding signal ([1]; almost no recruitment): 1.04 % recruited
binding signal [2]: 67.2 % recruited
binding signal [3]: 73.3 % recruited
binding signal [4]: 77.1 % recruited
binding signal [5]: 73.6 % recruited
binding signal ([6]; text: no recruitment): 5.17 % recruited
binding signal [7]: 77.9 % recruited
binding signal [8]: 66.2 % recruited
binding signal [9]: 75.1 % recruited
binding signal [10]: 81 % recruited
binding signal [11]: 78.3 % recruited
binding signal [12]: 72.6 % recruited
binding signal [13]: 71 % recruited
binding signal [14]: 78.9 % recruited
binding signal [15]: 50.3 % recruited

Kd [16]: 0.043 µM and 0.024 µM
Substance: eIF3 (wild type) (from UniProt P38249 1-964; P06103 1-763; P32497 1-812; P40217 1-347; Q04067 1-274) (complex)
